{"source": "paper PMC7039703", "key": {"[1]": {"target": "FcγRIIIaV (human) (UniProt P08637)", "sequence (P08637 17-208)": "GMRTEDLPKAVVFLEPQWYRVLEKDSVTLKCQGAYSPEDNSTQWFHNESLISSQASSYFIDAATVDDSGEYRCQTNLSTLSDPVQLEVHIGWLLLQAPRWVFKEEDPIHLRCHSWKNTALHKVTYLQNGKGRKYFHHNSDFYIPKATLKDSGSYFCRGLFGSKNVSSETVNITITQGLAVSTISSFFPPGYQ", "assay": "BLI"}, "[2]": {"target": "His-tagged FcγRI (human) (UniProt P12314)", "sequence (P12314 16-292)": "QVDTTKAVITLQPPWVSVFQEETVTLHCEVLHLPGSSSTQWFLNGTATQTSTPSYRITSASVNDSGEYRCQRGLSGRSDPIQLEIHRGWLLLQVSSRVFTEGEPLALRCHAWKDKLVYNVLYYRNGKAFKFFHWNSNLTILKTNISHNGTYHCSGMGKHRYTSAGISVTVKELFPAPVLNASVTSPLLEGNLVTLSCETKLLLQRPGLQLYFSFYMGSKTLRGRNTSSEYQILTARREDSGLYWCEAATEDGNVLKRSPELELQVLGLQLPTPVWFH", "assay": "ELISA"}, "[3]": {"target": "His-tagged FcγRIIB (human) (UniProt P31994)", "sequence (P31994 43-217)": "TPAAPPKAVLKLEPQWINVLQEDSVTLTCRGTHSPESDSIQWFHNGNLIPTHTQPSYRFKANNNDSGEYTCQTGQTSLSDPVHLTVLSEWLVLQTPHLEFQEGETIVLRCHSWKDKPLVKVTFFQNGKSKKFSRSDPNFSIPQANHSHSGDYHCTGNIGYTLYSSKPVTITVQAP", "assay": "ELISA"}, "[4]": {"target": "His-tagged FcγRIIaR (human) (UniProt P12318)", "sequence (P12318 34-217)": "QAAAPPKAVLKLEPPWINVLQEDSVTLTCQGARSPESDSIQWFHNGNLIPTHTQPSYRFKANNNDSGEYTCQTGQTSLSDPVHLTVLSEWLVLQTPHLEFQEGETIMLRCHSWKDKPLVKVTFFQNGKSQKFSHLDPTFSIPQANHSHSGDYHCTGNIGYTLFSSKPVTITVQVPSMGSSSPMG", "assay": "ELISA"}}}
{"substance": "monoclonal anti-CD20 antibody GA101 produced in 293SGlycoDelete cells", "values": [{"measurement": "fold lower binding affinity against 293S anti-CD20", "setting": "[1]", "value": 5.8, "unit": "fold"}, {"measurement": "fold reduction of binding competition against 293S anti-CD20", "setting": "[2]", "value": "> 10", "unit": "fold"}, {"measurement": "fold reduction of binding competition against 293S anti-CD20", "setting": "[3]", "value": "> 10", "unit": "fold"}, {"measurement": "fold reduction of binding competition against 293S anti-CD20", "setting": "[4]", "value": "> 10", "unit": "fold"}]}
